Residue numbers refer to the chain shown, from its start. Each block holds one binder with its values, some of them ahead of it.
Target: T1, Human TIM-3 Human Fc tagged protein (human, fluorescently labeled with HiLyte Fluor 555 (sites not given))
T1 construct: Bought construct; also called TIM-3 protein tagged with human Fc; ACROBiosystems catalog no: TM3-H5258
Assay: capture slide probed with labeled TIM-3-Fc;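 also: IgG from single CD138-enriched plasma cells, isolated from lymphocytes, immobilized on a derivatized glass slide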

binding result: binds
B13: SCT-Fa160 (antibody, V domains shown)
VH: QVQLQQPGTELVKPGASVKVSCKASGYTFISYWMHWVKQRPGQGLEWIGNIDPNYGGPNYNEKFKTKATLTVDKSSSTAYMQLSSLTSEDSAVYYCARWGWDGFAYWGQGTLVTVSA
VL: DAVMTQTPLSLPVSLGDQASISCRSSQSLENSNGNTYLNWYLQKPGQSPQLLIYRVSNRFSGVLDRFSGSGSGTDFTLKISRVEAEDLGVYFCLQLTHVPYTFGGGTKLEIK
notes: murine IgG

binding result: binds
B14: SCT-Fa153 (antibody, V domains shown)
VH: B13 VH with E46D, Y55N, P58T, T66S
VL: B13 VL with N33Y, N58T, L96V
notes: murine IgG

binding result: binds
B15: SCT-Fa154 (antibody, V domains shown)
VH: B13 VH with Y55S, P58T, N59K, T66S, T69I, A97T
VL: B13 VL with A19V, V56I, N58T, L96V
notes: murine IgG

binding result: binds
B16: SCT-Fa157 (antibody, V domains shown)
VH: B13 VH with Y55S, G57I, P58T, T66S, T69I
VL: B13 VL with A2V, V56I, N58T, L96V
notes: murine IgG

binding result: binds
B17: SCT-Fa165 (antibody, V domains shown)
VH: B13 VH with I30V, M34I, Y55N, P58S, K63R, K65R, T87A
VL: B13 VL with N58T
notes: murine IgG

binding result: binds
B18: SCT-Fa155 (antibody, V domains shown)
VH: B13 VH with Y55S, P58T, T66S, T69I, Y95F
VL: B13 VL with A2V, V56I, N58T, L96V
notes: murine IgG

binding result: binds
B19: SCT-Fa156 (antibody, V domains shown)
VH: B13 VH with Y55S, P58T, T66S, T69I, A97T
VL: B13 VL with A19V, V56I, N58T, L96V
notes: murine IgG

binding result: binds
B20: SCT-Fa159 (antibody, V domains shown)
VH: B13 VH
VL: B13 VL with L96I
notes: murine IgG

binding result: binds
B21: SCT-Fa166 (antibody, V domains shown)
VH: B13 VH with I30V, Y55N, P58S, K63R, K65R, T87A
VL: B13 VL with N58T
notes: murine IgG

binding result: binds
B22: SCT-Fa144 (antibody, V domains shown)
VH: QVQLQQPGAELVTPGASVKLSCKASGYTFTTYWMHWVKQRPGQGLEWIGEIDPSDSYRNYNQKFKGKATLTVDKSSSTAYMQLSSLTSEDSAVYYCARNYGSNYVGYFDYWGQGTALTVSS
VL: DIQMTQTTSSLSASLGDRVTISCRASQDITNYLNWYQQRPDGTVKLLIYYTSRLHSGVPSRFSGSGSGTDYSLTISNLAQGDIATYFCQQASTLPWTFGGGTKLDIK
notes: murine IgG

binding result: binds
B23: SCT-Fa169 (antibody, V domains shown)
VH: B22 VH with A9T, T13M, K19N, T31S, R58A, K63N, S77I, A116T
VL: B22 VL with T30S, R39K, A79D, G81E, A91E, S92K, D105E
notes: murine IgG

binding result: binds
B24: SCT-Fa170 (antibody, V domains shown)
VH: QVQLQQSGAELARPGASVKLSCKASGYTFRSYGLSWVKQRTGQGLEWIGEIYPRSGNTYYNEKFKDRVTLTADKSSSAAYMELRSLTSEDSAVYFCARSTAVVAGGFDYWGQGTALTVSS
VL: DIVMTQSPSSLTVTAGEKVTMSCKSSQSLFNSRTQKNSLTWYQQKPGQPPKLLIFWASTRESGVPDRFTGSASGTDFTLTLSGVQAEDLAIYYCQNDYTYPWTFGGGTKLEIK
notes: murine IgG

binding result: binds
B25: SCT-Fa171 (antibody, V domains shown)
VH: B24 VH with R30T, S31N, L34I, T58S, D66G, R67K, V68A, A78T, V102I, A115T
VL: B24 VL with F30L, T34I, F55Y, G70A, A72G, L81I, G83S, I91V
notes: murine IgG

Second part, the binder before the results:

B1: SCT-Fa082 (antibody, V domains shown)
VH: QGQLQQPGAEVVKPGAAVKLSCKASGYTFTSYWMQWIKQRPGQGLEWIGEIDPSDNYTDYNQNFKGKATLTVDTSSSTAYLQLSSLTSEDSAVYYCAREGAFSSPFAYWGPGTLVTVSS
VL: DILMTQSPSSMSVSLGDTVSIICHASQDIRSNIGWLQQKPGKSFKGLIYHGTNLEDGVPSRFSGSGSGADYSLTISSLESEDFADYYCVQYVQFPRTFGGGTKLEIK
notes: murine IgG
binding result: binds

B2: SCT-Fa078 (antibody, V domains shown)
VH: B1 VH with E46D, S77N
VL: B1 VL
notes: murine IgG
binding result: binds

B3: SCT-Fa081 (antibody, V domains shown)
VH: B1 VH with R98K
VL: B1 VL
notes: murine IgG
binding result: binds

B4: SCT-Fa080 (antibody, V domains shown)
VH: B1 VH with N63H
VL: B1 VL
notes: murine IgG
binding result: binds

B5: SCT-Fa148 (antibody, V domains shown)
VH: B1 VH with G2V, A17S, I37V, L81M, R98K, F102Y, S119A
VL: B1 VL with S20T, Q37R, K42T
notes: murine IgG
binding result: binds

B6: SCT-Fa151 (antibody, V domains shown)
VH: QVQLQQPGSELVRPGTSVKLSCKASGYTFTSYWMHWVKQRPGQGLEWIGVIDPSDNNTHYNQKFTGKATLTVDTSSSTAYMHLSSLTSEDSAVFYCARNDYDGGYFDFWGQGTTLTVSS
VL: DVVMTQTPLSLPVSLGDHASISCRSSQSLVHSNGHTYLHWYLQKPGQSPKLLIDKVSNRFSGVPDRFSGSGSGTDFTLKISRVEAEDLGVYFCSQSTHVPWTFGGGTKLEIK
notes: murine IgG
binding result: binds

B7: SCT-Fa158 (antibody, V domains shown)
VH: B13 VH with Y55S, G57T, P58T
VL: B13 VL with N58T, L96V
notes: murine IgG
binding result: binds

B8: SCT-Fa161 (antibody, V domains shown)
VH: B13 VH
VL: QIVLTQSPALMSASPGEKVTMTCSASSSVSYMYWYQQKPRSSPKPWIYLTSNLASGVPARFSGSGSGTSYSLTISSMEAEDAATYYCQQWSSNPFTFGSGTKLEIK
notes: murine IgG
binding result: binds

B9: SCT-Fa163 (antibody, V domains shown)
VH: B13 VH with P58S, T66S
VL: DIQMTQSPSSLSASLGERVSLTCRASQDIGSSLNWLQQEPDGTIKRLIYATSSLDSGVPKRFSGSRSGSDYSLTISSLESEDFVDYYCLQYASSPFTFGSGTKLEIK
notes: murine IgG
binding result: binds

B10: SCT-Fa164 (antibody, V domains shown)
VH: B13 VH with D52N, Y55N, P58T, T66S
VL: B13 VL with N58T, L96V
notes: murine IgG
binding result: binds

B11: SCT-Fa152 (antibody, V domains shown)
VH: B13 VH with W33C, E46D, Y55N
VL: B13 VL with L96V
notes: murine IgG
binding result: binds

B12: SCT-Fa168 (antibody, V domains shown)
VH: B13 VH with A24T, Y55S, G57T, P58T
VL: B13 VL with N58T, L96V
notes: murine IgG
binding result: binds
